Here are results for 2 molecules from patent publication US20260146103A1 (J DAVID GLADSTONE INSTITUTES A TESTAMENTARY TRUST …, published 2026).

Experiment [1] addresses FIBG 331-345 peptide (human) (UniProt P02679). Briefly: solid phase ELISA, 30 µM FIBG331-345 peptide coated.
For experiment [2], the target named is T1, fibrinogen (UniProt P02671 20-629; P02675 31-491; P02679 27-437, limits assumed).
T1 construct: also called IgG-depleted fibrinogen
T1 sequence (looked up) 1: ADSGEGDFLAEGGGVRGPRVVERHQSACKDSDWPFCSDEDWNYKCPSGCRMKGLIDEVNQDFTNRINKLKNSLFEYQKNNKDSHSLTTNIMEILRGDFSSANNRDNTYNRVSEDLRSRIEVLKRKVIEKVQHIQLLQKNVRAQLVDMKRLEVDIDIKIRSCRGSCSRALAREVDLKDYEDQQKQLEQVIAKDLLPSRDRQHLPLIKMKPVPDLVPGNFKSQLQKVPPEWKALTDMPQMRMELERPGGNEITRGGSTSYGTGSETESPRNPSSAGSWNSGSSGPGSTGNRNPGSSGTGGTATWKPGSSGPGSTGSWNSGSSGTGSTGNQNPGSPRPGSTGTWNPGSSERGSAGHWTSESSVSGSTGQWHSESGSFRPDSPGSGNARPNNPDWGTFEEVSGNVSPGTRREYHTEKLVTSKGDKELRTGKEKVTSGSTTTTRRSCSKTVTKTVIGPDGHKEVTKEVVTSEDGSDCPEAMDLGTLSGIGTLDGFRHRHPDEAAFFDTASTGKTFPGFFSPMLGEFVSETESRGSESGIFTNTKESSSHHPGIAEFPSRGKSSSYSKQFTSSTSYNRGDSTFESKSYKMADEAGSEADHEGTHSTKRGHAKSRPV
T1 sequence (looked up) 2: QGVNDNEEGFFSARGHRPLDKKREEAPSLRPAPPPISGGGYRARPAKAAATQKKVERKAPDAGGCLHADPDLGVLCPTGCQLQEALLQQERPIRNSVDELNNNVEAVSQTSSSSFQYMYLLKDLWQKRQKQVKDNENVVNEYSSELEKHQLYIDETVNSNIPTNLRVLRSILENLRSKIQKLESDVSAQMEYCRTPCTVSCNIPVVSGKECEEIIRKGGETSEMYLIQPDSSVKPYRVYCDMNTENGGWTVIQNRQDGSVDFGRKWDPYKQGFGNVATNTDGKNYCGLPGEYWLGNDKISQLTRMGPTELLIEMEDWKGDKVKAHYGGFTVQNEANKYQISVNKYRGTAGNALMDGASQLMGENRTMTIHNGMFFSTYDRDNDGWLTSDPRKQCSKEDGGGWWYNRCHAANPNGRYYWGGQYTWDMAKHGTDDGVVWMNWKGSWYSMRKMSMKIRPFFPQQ
T1 sequence (looked up) 3: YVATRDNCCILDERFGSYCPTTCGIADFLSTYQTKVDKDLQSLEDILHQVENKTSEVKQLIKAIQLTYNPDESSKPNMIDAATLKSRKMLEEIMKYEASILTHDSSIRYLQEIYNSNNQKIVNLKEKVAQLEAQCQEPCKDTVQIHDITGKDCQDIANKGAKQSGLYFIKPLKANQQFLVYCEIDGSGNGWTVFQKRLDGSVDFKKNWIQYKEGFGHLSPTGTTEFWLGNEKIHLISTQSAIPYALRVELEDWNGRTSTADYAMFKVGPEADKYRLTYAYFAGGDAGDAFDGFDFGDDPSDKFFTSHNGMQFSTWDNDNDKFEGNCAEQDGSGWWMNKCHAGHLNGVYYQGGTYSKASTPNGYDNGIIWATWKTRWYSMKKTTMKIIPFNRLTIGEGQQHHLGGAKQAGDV
Briefly: solid phase ELISA, 25 µg/mL IgG-depleted fibrinogen coated, 12-point 3-fold dilution. The method, then:
(§1) Solid phase ELISA was used to assess whether Antibody G binds to fibrinogen and fibrin separately. Antibody G was incubated for 2 hours at 37° C. on 25 μg/mL IgG-depleted fibrinogen or fibrin in 20 mM HEPES buffer, pH7.2, coated and dried overnight in high protein-binding ELISA plates.
On the technique in general: In an ELISA, binding on a coated surface is turned into a signal by an enzyme label.

For experiment [3], the target named is T2, P2 peptide (YSMKETTMKIIPFNRLTIG).
T2 peptide: YSMKETTMKIIPFNRLTIG
As to the kind of experiment: solid phase ELISA, 30 µM P2 peptide coated. The method, then: Based on the fibrinogen peptide profiling (FIG. 8), 15mers were selected to carry out individual peptide binding validation using solid phase ELISA. High purity 15mers were synthesized (Genemed) and then each were diluted at 30 μM in 20 mM HEPES buffer, coated in separate wells and dried overnight. Antibody G was incubated on peptide coated wells for 2 hours at 37° C., at a concentration of 25 or 50 μg/mL.

Experiment [4] concerns the target T3, fibrin (UniProt P02671 36-629; P02675 45-491; P02679 27-437).
T3 construct: also called IgG-depleted fibrin; fibrin networks
T3 sequence (looked up) 1: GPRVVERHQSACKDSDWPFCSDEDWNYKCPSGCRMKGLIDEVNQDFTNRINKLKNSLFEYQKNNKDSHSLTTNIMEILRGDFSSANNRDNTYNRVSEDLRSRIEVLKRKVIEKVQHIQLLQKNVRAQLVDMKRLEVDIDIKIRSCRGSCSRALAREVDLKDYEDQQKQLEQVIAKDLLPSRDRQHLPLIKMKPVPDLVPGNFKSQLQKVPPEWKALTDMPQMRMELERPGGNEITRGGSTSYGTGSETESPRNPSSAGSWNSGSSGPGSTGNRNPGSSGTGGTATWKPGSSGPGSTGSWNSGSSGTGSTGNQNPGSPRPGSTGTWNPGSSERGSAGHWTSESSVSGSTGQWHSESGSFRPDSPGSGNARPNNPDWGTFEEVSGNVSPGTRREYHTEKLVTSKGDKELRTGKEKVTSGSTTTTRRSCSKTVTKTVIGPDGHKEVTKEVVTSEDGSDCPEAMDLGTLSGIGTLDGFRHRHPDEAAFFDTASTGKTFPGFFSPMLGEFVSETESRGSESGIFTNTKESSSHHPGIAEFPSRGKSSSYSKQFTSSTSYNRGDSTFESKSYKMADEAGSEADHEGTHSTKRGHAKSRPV
T3 sequence (looked up) 2: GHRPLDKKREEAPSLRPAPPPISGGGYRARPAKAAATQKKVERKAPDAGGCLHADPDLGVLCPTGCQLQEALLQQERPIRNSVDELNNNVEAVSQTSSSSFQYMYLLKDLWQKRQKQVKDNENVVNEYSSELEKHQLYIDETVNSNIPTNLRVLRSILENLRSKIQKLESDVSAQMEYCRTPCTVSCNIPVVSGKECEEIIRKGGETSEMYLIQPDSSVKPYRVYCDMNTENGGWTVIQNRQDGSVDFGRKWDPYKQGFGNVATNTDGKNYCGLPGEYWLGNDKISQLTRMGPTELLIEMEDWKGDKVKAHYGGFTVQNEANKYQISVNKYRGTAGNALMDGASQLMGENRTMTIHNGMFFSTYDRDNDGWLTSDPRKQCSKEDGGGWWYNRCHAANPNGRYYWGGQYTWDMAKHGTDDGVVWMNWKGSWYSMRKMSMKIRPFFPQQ
T3 sequence (looked up) 3: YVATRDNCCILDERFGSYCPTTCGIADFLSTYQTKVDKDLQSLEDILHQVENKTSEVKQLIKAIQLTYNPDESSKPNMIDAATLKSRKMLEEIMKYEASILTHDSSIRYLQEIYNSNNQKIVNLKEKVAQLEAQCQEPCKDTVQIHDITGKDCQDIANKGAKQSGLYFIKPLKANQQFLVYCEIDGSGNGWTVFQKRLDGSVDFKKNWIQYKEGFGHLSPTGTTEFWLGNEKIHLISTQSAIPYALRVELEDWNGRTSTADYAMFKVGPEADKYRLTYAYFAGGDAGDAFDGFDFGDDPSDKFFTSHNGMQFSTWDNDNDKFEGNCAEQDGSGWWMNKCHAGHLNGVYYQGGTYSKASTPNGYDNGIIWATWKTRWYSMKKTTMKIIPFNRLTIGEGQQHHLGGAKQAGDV
As to the kind of experiment: solid phase ELISA, 25 µg/mL IgG-depleted fibrin coated, 12-point 3-fold dilution. The method, then:
as §1
Solid phase ELISA was used to assess murine Antibody G binding to fibrin. Antibody G was incubated for 2 hours at 37° C. on 25 μg/mL IgG-depleted fibrin in 20 mM HEPES buffer, pH7.2, coated and dried overnight in high protein-binding ELISA plates.

B1: Antibody G (45-C1C3) (antibody, V domains shown)
VH: EVQLVESGGGAVQPGRSLRLSCAASGVSFSNIGMHWVRQAPGKGLEWVALISSDGRHTHYADSVKGRFTISRDNSENTLYLQINGLRADDTAVYYCAKGLDTRARYMGKFYTFDYWGQGTLVTVSS
VL: DIQLTQSPSSLSASVGDRVTITCRASQNIGVNLNWYQQRPGKGPKLLVSSTFSLQSGVPSRFSASGAGTNFTLTISSLQPEDYVTYYCQQSYSSPFTFGPGTKVDIK
notes: also called mAb G; Ab G
B1: the Kd (usually a measure of binding affinity in units of concentration) was found to be 360 nM in experiment [1], 660 nM in experiment [2], 11800 nM in experiment [3] and 160 nM in experiment [4].

B2: murine Antibody G (mu-AbG) (antibody, mouse IgG2a, kappa, V domains shown)
VH: EVQLVESGGGAVQPGRSLRLSCAASGVSFSNIGMHWVRQAPGKGLEWVALISSDGRHTHYADSVKGRFTISRDNSENTLYLQINGLRADDTAVYYCAKGLDTRARYMGKFYTFDYWGQGTLVTVSS
VL: DIQLTQSPSSLSASVGDRVTITCRASQNIGVNLNWYQQRPGKGPKLLVSSTFSLQSGVPSRFSASGAGTNFTLTISSLQPEDYVTYYCQQSYSSPFTFGPGTKVDIKR
notes: Variable domains of Antibody G with mouse IgG2a heavy and mouse kappa light constant regions; also called murine mAb G
The molecule B2 showed a Kd in experiment [4] of 40 nM.
